Experimental data: patent US5786328A, “Use of kunitz type plasma kallikrein inhibitors” (Genentech, Inc., priority 1995, dated 1998)

Key:
Test in all cases: Specificity assay, fraction of remaining proteolytic activity
Type in all cases: biochemical
Factor XIa = molecular target: T1, Factor XIa (Homo sapiens, UniProt P03951); details: 100 nM inhibitor; […] enzyme
T1 construct: purchased Haematologic Technologies Inc. (Essex Jct., VT)
Protocol: (§1) Aliquots (30 μL) of various inhibitors diluted to 500 nM were incubated with each protease (100 μL) in the appropriate buffer. After incubation of the substrate/inhibitor mixes at room temperature for 2 h, the appropriate substrate (20 μL) was added, and the absorbance at 405 nm was monitored. Controls lacking inhibitor and enzyme were assayed to measure the uninhibited and substrate hydrolysis rates, respectively. […] The FXIa assay also contained 1 mg/mL BSA. The concentration of FXIa throughout refers to the concentration of active sites. For this experiment, the concentrations of thrombin, TF-FVIIa, FXa, FXIa, FXIIa, and plasmin are 25 approximate and are determined based upon the manufacturers, specifications.
(§2) Serine proteases (1 to 20 nM) were assayed in the presence of 100 nM inhibitor.

plasma kallikrein = molecular target: T2, plasma kallikrein (Homo sapiens, UniProt P03952); details: 100 nM inhibitor; 3.5 nM enzyme
T2 construct: Human plasma kallikrein and Factor XIIa were purchased; purchased Enzyme Research Laboratories, Inc. (South Bend, Ind)
Protocol: as §1, §2

plasmin = molecular target: T3, plasmin (Homo sapiens, UniProt P00747); details: 100 nM inhibitor; 32 nM enzyme
T3 construct: Human plasmin, S-2302, S-2251, and S-2366 were purchased from Kabi Vitrum (Sweden); purchased Kabi Vitrum (Sweden)
Protocol: as §1, §2

TF-FVIIa = molecular target: T4, TF-FVIIa (Homo sapiens, UniProt P08709); details: 100 nM inhibitor; TF 77 nM, FVIIa 14 nM
T4 construct: purchased Haematologic Technologies Inc. (Essex Jct., VT) for FVIIa; TF made in house; host or cells: TF1-243: E. coli
Protocol: as §1, §2

thrombin = molecular target: T5, thrombin (Homo sapiens, UniProt P00734); details: 100 nM inhibitor; 6.2 nM enzyme
T5 construct: purchased Haematologic Technologies Inc. (Essex Jct., VT)
Protocol: as §1, §2

activated protein C = molecular target: T6, activated protein C (Homo sapiens, UniProt P04070); details: 100 nM inhibitor; 7.6 nM enzyme
T6 construct: purchased Haematologic Technologies Inc. (Essex Jct., VT)
Protocol: as §1, §2

Factor XIIa = molecular target: T7, Factor XIIa (Homo sapiens, UniProt P00748); details: 100 nM inhibitor; 14 nM enzyme
T7 construct: purchased Enzyme Research Laboratories, Inc. (South Bend, Ind)
T7 sequence (P00748 20-372 limits assumed): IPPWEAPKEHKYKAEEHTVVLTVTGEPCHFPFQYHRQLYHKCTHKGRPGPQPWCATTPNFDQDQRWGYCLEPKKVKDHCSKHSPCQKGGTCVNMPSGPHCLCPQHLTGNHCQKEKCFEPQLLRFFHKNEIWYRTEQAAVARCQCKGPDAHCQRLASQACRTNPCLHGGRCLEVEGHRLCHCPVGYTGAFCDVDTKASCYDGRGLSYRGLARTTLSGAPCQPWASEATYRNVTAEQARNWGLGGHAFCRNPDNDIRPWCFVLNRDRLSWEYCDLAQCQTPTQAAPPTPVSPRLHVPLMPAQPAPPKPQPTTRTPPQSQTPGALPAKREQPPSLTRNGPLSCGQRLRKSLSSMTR
T7 sequence (P00748 373-615 limits assumed): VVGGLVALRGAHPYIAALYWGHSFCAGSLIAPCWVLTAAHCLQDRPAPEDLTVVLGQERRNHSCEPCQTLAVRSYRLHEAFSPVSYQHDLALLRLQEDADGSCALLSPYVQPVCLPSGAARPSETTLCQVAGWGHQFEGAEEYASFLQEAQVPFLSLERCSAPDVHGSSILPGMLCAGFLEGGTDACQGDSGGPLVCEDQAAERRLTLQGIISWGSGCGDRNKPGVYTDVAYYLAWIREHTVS
Protocol: as §1, §2

Factor Xa = molecular target: T8, Factor Xa (Homo sapiens, UniProt P00742); details: 100 nM inhibitor; 2.5 nM enzyme
T8 construct: purchased Haematologic Technologies Inc. (Essex Jct., VT)
T8 sequence (P00742 41-179 limits assumed): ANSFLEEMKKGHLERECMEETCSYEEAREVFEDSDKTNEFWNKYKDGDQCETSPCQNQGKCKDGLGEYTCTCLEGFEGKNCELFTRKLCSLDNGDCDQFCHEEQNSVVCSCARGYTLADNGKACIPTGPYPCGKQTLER
T8 sequence (P00742 235-488 limits assumed): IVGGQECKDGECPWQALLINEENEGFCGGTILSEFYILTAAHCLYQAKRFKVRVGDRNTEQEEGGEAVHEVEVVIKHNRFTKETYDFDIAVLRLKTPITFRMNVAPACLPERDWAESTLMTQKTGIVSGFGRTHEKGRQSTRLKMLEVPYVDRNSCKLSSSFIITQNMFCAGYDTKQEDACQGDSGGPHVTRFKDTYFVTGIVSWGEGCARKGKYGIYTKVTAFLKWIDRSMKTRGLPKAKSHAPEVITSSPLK
Protocol: as §1, §2

T2 sequence (P03952 20-390 limits assumed): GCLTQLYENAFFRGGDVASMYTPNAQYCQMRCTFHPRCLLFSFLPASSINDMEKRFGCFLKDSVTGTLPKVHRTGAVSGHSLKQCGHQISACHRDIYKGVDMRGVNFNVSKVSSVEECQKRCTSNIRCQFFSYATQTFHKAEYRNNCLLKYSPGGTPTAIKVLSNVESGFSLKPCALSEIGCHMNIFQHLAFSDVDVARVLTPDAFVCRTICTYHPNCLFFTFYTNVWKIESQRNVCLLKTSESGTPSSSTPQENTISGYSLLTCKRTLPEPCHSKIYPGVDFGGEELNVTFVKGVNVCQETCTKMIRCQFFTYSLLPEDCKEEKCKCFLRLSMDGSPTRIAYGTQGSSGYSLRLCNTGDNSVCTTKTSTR
T2 sequence (P03952 391-638 limits assumed): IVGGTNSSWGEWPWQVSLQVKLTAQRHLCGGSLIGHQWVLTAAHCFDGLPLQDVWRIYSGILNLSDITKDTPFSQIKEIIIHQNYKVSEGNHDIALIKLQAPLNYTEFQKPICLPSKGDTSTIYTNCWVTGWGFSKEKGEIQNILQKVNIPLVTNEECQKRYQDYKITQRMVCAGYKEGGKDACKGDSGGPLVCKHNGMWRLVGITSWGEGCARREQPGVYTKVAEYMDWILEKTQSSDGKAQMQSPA
T3 sequence (P00747 97-580 limits assumed): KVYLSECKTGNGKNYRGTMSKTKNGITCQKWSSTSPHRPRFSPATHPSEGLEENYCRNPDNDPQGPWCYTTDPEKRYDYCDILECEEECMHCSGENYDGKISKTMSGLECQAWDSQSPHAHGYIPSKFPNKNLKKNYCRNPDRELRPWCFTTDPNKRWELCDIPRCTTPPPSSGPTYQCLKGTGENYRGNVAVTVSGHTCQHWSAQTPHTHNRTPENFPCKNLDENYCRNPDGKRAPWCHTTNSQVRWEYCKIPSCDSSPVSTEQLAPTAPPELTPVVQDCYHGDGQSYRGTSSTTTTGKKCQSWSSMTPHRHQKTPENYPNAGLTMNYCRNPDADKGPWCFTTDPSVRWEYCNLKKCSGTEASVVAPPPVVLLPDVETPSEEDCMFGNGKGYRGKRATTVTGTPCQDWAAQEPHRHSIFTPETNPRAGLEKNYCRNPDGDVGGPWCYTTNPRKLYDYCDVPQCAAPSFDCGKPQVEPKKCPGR
T3 sequence (P00747 581-810 limits assumed): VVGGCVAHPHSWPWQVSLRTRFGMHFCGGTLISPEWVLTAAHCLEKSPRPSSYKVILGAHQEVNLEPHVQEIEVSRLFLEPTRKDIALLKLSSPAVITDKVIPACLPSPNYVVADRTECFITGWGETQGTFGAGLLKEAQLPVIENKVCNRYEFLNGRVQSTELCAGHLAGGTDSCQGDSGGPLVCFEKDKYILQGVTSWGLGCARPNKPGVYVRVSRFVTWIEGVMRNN
T6 sequence (P04070 43-197 limits assumed): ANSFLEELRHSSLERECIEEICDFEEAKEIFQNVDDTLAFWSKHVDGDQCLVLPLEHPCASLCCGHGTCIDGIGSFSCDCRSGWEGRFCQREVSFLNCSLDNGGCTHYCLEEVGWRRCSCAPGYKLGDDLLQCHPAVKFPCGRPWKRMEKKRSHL
T6 sequence (P04070 212-461 limits assumed): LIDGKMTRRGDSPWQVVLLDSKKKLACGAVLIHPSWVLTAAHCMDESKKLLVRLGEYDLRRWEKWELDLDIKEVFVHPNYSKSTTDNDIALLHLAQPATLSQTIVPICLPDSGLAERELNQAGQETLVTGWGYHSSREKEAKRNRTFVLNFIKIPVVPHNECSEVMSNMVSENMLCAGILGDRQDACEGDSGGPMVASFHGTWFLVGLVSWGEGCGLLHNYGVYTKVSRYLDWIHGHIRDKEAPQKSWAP
T1 sequence (P03951 19-387 limits assumed): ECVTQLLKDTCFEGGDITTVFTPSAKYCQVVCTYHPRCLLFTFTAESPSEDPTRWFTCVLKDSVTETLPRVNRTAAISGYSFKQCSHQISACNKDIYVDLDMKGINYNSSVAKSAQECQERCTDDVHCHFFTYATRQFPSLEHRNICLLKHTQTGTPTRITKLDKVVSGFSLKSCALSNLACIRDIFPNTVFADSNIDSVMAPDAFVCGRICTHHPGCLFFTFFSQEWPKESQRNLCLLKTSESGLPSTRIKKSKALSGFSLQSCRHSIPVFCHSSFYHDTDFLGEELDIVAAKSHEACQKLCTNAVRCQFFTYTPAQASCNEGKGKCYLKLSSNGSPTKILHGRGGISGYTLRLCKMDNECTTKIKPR
T1 sequence (P03951 388-625 limits assumed): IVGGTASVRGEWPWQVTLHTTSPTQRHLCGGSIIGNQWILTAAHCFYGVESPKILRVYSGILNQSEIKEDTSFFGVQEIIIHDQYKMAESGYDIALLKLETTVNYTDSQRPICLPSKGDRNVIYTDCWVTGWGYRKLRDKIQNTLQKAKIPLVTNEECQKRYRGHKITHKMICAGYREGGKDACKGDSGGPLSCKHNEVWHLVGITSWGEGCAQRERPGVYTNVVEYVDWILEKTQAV
T4 sequence (P08709 61-212 limits assumed): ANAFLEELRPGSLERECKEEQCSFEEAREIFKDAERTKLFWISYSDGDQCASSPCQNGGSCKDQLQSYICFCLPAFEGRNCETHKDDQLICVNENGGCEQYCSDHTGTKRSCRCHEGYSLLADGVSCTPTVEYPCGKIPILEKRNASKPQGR
T4 sequence (P08709 213-466 limits assumed): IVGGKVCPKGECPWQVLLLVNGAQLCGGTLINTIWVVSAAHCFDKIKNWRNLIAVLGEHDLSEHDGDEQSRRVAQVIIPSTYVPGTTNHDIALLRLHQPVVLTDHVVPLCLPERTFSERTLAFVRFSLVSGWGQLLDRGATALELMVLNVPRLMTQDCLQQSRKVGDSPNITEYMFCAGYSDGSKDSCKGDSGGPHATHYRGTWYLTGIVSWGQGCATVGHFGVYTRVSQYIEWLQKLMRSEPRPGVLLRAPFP
T4 sequence (P13726 33-275 partner limits assumed): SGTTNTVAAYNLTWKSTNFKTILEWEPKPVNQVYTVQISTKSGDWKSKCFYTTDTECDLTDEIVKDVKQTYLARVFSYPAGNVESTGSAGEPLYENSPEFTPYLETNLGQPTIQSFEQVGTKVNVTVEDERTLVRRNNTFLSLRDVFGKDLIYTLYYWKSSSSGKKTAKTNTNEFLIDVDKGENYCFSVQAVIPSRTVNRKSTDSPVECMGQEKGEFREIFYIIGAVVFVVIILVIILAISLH

Substance	fraction of remaining proteolytic activity, Factor XIa (Factor XIa)	fraction of remaining proteolytic activity, plasma kallikrein (plasma kallikrein)	fraction of remaining proteolytic activity, plasmin (plasmin)	fraction of remaining proteolytic activity, TF·Factor VIIa (TF-FVIIa)	fraction of remaining proteolytic activity, thrombin (thrombin)	fraction of remaining proteolytic activity, activated protein C (activated protein C)	fraction of remaining proteolytic activity, Factor XIIa (Factor XIIa)	fraction of remaining proteolytic activity, Factor Xa (Factor Xa)
KALI-46: APPI Kunitz domain mutant, R1 EGRCRASILR2 FR3 (SEQ ID NO: 33) (VREVCSEQAEEGRCRASILRWYFDVTEGKCAPFFYGGCGGNRNNFDTEEYCAAVCGSA)	0.00	0.00	0.64	0.86	0.99	0.83	0.97	
KALI-13: APPI Kunitz domain mutant, R1 SGHCRAAIPR2 FR3 (SEQ ID NO: 1) (VREVCSEQAESGHCRAAIPRWYFDVTEGKCAPFFYGGCGGNRNNFDTEEYCAAVCGSA)	0.01	0.00	0.65	0.96	0.96	0.90	1.00	0.97
KALI-48: APPI Kunitz domain mutant, R1 TGHCRAAIPR2 FR3 (SEQ ID NO: 2) (VREVCSEQAETGHCRAAIPRWYFDVTEGKCAPFFYGGCGGNRNNFDTEEYCAAVCGSA)	0.01	0.00	0.23	0.95	0.99	0.92	0.99	0.55
KALI-30: APPI Kunitz domain mutant, R1 EGHCRAAILR2 FR3 (SEQ ID NO: 5) (VREVCSEQAEEGHCRAAILRWYFDVTEGKCAPFFYGGCGGNRNNFDTEEYCAAVCGSA)	0.00	0.00	0.53		1.00	0.81	0.92	0.68
KALI-8: APPI Kunitz domain mutant, R1 LGHCRAAIPR2 FR3 (SEQ ID NO: 3) (VREVCSEQAELGHCRAAIPRWYFDVTEGKCAPFFYGGCGGNRNNFDTEEYCAAVCGSA)	0.00	0.00	0.83	0.94	0.99	0.89	1.00	
